A short description of the data set: amyloid nucleation score (Sup35N fusion, yeast selection) (log enrichment); library NNK3; higher = more nucleation; inactive = no reads after selection. Put shortly: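 Nucleation score is defined as the DiMSum log enrichment of output over input reads, with centring on the mode score of non-aggregating sequences. A minimum of 100 input reads was required for each sequence. Reads came from Illumina sequencing of plasmid inserts from psi-negative yeast expressing Sup35N fused to peptides of 20 random codons, induced with 100 μM copper sulfate for 24 hours and grown 7 days at 30°C on medium lacking adenine and uracil.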

± gives the uncertainty stated by the source.

As for IFSLYMGASCMWLMIVGWLD, the amyloid nucleation score result was “inactive”. As to KWVKPRVVTQKR, the amyloid nucleation score entry was “inactive”. The entry for QKMPSANDRLCISSFLYNLE is “inactive”; for QCVVVKCCWRDNRWLGSDLV it is -0.178 ± 0.54; for YNMTLTYLRLLGAGSIISCL it is “inactive”. In the case of ELRLMGFRGALDACLSLHPI it was “inactive”. The figure for ICSFRTWA is 0.978 ± 0.1; for ILQTRKRVNVLNIVIWQIAF it is 1.09 ± 0.18; for LRSWPVLHSAISTND it is “inactive”. For IRYSGFPYPSNLWHTSATLY, the amyloid nucleation score result is “inactive”. The entry for SRFLKCF is “inactive”.

As for TWVVYFVVRMCVQGSVYSMA, the amyloid nucleation score result is “inactive”. The figure for FCGPFSYGRLTYGFWFRKRP is 1.75 ± 0.11; for SIKFYLRLMTSLKVKLY it is “inactive”; for IEFGVCKVRNVVNDVRFRRG it is “inactive”. Take SCIFNWFGFYNIINVFNLCF: the amyloid nucleation score came to 2.5 ± 0.053. The entry for SFSRPCWLYWAGFLSVVYRC is “inactive”; for IFQRKRRTYLS it is “inactive”; for TASVLNYFSGFWRGV it is 1.04 ± 0.17. In the case of RPSSLIYFSSPNTRHGSPTL it was “inactive”. With MSVRPL, the amyloid nucleation score result was “inactive”. The entry for QQHAVR is “inactive”. The entry for LNKHSAYGTDLVYSRLKFVL is “inactive”; for SWRASVYFITWDW it is “inactive”; for SFRFVSLVLFAVNDNYGRCW it is 1.61 ± 0.13.

For GRRSNCINSVNSGTRGRRRA, the amyloid nucleation score result was “inactive”.

For YSFDASTYIYVSGRLFNKSV, the amyloid nucleation score entry is “inactive”.

For FMLGDAVFRFFVRNGGRIDN, the amyloid nucleation score result was “inactive”.

As to VRVSNSFMTDTK, the amyloid nucleation score entry was “inactive”. With SDWFGCVVVTLCLVNHQALS, the amyloid nucleation score entry was “inactive”.

FDGNFGWARRVNAGDSLFMF: the amyloid nucleation score entry is “inactive”.

For the substance MYQDPCIHSVCCWIM, the amyloid nucleation score was found to be 1.28 ± 0.096. The entry for WLVYPC is “inactive”. In the case of CLNNRSFNPKMQYPLVTMDH it was “inactive”; in that of CVHNLN, “inactive”; in that of WYWSLA, -0.174 ± 0.59. Turning to SSCRTRC, the amyloid nucleation score is -0.405 ± 0.76.

With LFRIRQCFFYFSIFLVFSIK, the amyloid nucleation score entry is “inactive”. The entry for VWDRRK is “inactive”; for GILRQRIYFSM it is “inactive”; for DKSDQSSRRFSGTRAYFSTM it is “inactive”.

Regarding NQVVAVG, the amyloid nucleation score result is “inactive”.

With CQLGSSLGDDTEGSVAIPAV, the amyloid nucleation score result is “inactive”. In the case of PSHWFISL it was “inactive”. In the case of RCRLSKANFRHWNKEVKWTF it was “inactive”. In the case of LGHYAKPLSSVQQNRTNMGA, the amyloid nucleation score entry was “inactive”. In the case of MSVSSCLTPGDGNESHWNSR it was “inactive”. In the case of CVFCVNRTLLIVWIMVRY it was “inactive”; in that of VQTSHHNAVEICCMCLCQML, 3.02 ± 0.065; in that of LSVHTLHNG, “inactive”. As for LAEVMTVLLFDYVNHWGSAI, the amyloid nucleation score entry was “inactive”. In the case of HFARDPLSERSKFPLIF it was 0.623 ± 0.15.

Take FLVIPWDEEKCRLSDLFASN: the amyloid nucleation score result was “inactive”. In the case of SSDSKGFHGFGWFFWISLVT it was “inactive”. In the case of KRRMRGALRVRVNSTHCWYV it was “inactive”. In the case of QCSMDRNT it was “inactive”; in that of VHLYEFRLNAACSCPSDRYG, “inactive”; in that of KMDLTGWTI, “inactive”. VFAFTKMESRFLLGLRVDEY registered an amyloid nucleation score of 0.729 ± 0.15. The entry for LSIYRFSCTNSRCLMDLFI is “inactive”; for LSVITVLNKKNRSDIMWIMI it is “inactive”; for RPVTPC it is “inactive”. The entry for MWFTLKMYTMRCCFEVTLRK is “inactive”; for FFRQQKYSVCLFGGTFIWVV it is “inactive”; for MALHRFS it is “inactive”.

Consider RFNGVVQEIVFCWRYRFVGN, for which the amyloid nucleation score was -0.631 ± 0.96. In the case of LKSST it was “inactive”. For the substance DWEDCVV, the amyloid nucleation score result is “inactive”. The entry for PCPSEFDLSGRYRAAWVRCS is “inactive”. In the case of MIVGYACFAFGAWFFGFYCM it was “inactive”; in that of FSLHQSNTLRPWDLIPATW, “inactive”. The entry for CFASWN is “inactive”; for MCNWMNNLADSGLSASSVQV it is “inactive”. Take AWVPMFFSLHMWHCNALNFC: the amyloid nucleation score result was “inactive”. The entry for FGTEDK is “inactive”; for GNCGRSGINCHMTGTSVVRC it is “inactive”. In the case of LGDAFWFEIH, the amyloid nucleation score result is “inactive”. The entry for YHTARFGIKFLLRM is “inactive”; for MTVHDIHYLS it is “inactive”; for VIRRHWR it is “inactive”. Regarding CMGMCELFNTWCYEGKTPIS, the amyloid nucleation score entry was “inactive”. In the case of FTCQSHAILGVDDDTWGRTN, the amyloid nucleation score entry was “inactive”. In the case of LNTRVGSFTNRLWSRMKEGG it was “inactive”. The entry for IYLLGMYIKACSG is “inactive”; for LENGVHVRRSIEF it is “inactive”. In the case of DCILGGSMMGRNTSMSAHDN it was “inactive”. Substance WHNMSMMKSVPTYSGESHTR returned an amyloid nucleation score of 0.97 ± 0.18. For VLVESDLSVIATVSGLLCAR, the amyloid nucleation score entry is “inactive”. In the case of YSYAQMSLMEQQMLIRT, the amyloid nucleation score entry was “inactive”. As for VTVIYNVDYCKETIFQMVVT, the amyloid nucleation score stood at 0.124 ± 0.48. DLDECKFPINELSFHSSMGM came in with an amyloid nucleation score of 1.83 ± 0.091.

As to HAEFSEHITCGGSGPSCFVG, the amyloid nucleation score result is “inactive”. The entry for NSNGCVQGQRFSWPWVGRLA is “inactive”; for RVLNAYSLEYKCISSMPWYL it is 1.49 ± 0.14; for RCRTDILYNFERHYLRVEYA it is “inactive”. In the case of NSLVLTLLNLVGKSLHHFYN it was “inactive”; in that of SLSTSNLNIKLSPCYSFNRH, 0.678 ± 0.31; in that of IDMILC, “inactive”. The entry for ELLLMCIDDVSMRFITPLEY is “inactive”; for VGWTVGYKW it is “inactive”; for YMCSLLMIAKSMPGRG it is 1.42 ± 0.14. In the case of ARKMTIRPPLFPAWHSFELK, the amyloid nucleation score entry was “inactive”. In the case of INAGF it was “inactive”. In the case of LTASYSFVTTVGYSGLDLKV it was “inactive”; in that of VDFYLR, “inactive”. The entry for SSWADYSKPYSGFCQGYRVY is “inactive”. Regarding FSEASPLYVTSPRQSSLPRP, the amyloid nucleation score result is “inactive”.

As for FYLHSFRLNHSLRDLSDLGE, the amyloid nucleation score entry was “inactive”. In the case of VLDLTKYSFLTI it was “inactive”; in that of HSSSYCSSYKERSIPWSW, 0.93 ± 0.12; in that of TSLSRHTIPYNHVLYSTWW, “inactive”.

Regarding TVLLIGNMWTYWAYMQCSWG, the amyloid nucleation score entry was “inactive”. For GCASRLFVGWRGSCRMCGTY, the amyloid nucleation score entry is “inactive”. Turning to AIRGVARLRVMDRVSALPLR, the amyloid nucleation score entry was “inactive”. In the case of LSNRGLIYHEGTRICATYRE it was 0.719 ± 0.22; in that of LSQIEGWKCIGWVHYMVDSI, “inactive”; in that of YFEVSLIRLYHEKTTTRMVY, “inactive”.

As for IIAPSGVGWYWR, the amyloid nucleation score result is “inactive”. Consider IESKAWISVAGARFYSLGVG, for which the amyloid nucleation score entry is “inactive”. For FFARSHAVIINFFCTH, the amyloid nucleation score is 2.72 ± 0.066. Substance AKWCVF yielded an amyloid nucleation score of -0.714 ± 2.4.

In the case of WGSLMFRVYTKMFEALERVL, the amyloid nucleation score result is “inactive”. Take GYLLTVLLLSMFNSFDNDWL: the amyloid nucleation score entry is “inactive”. For FAHVI, the amyloid nucleation score entry is “inactive”. In the case of VGYAKYPSNRVRIYRGFENV it was “inactive”; in that of EVPGHSGQYSGVDYGYVWLA, “inactive”; in that of HEKSIRVESMAVLIRPVTRS, “inactive”. The entry for SVNTLLALRV is “inactive”; for NFGQKQNIWAWTVYCPDPCE it is “inactive”; for LYYKSLGRCRNYLYCSH it is 0.596 ± 0.12. The figure for HNVFVFCNMAVIELQVNDWL is 3.26 ± 0.063; for LYINVHLEEIIFSLALREK it is 1.71 ± 0.057.

The record behind these values is the supplement of paper PMC12042874.
